A word on the Km: it is the concentration of substrate that gives half-maximal velocity. The term kcat denotes the number of substrate molecules converted per active site and unit of time at saturation. As a reminder, the kcat/Km is the second-order rate constant that governs catalysis at low substrate concentration.

Among the data in PMC3099546 are Km, kcat and kcat/Km values, retold here.

Substrate in the data set: CCCCC/C=C\C\C=C/C=C/C=C/[C@@H](SC[C@H](NC(=O)CC[C@H](N)C(=O)O)C(=O)NCC(=O)O)[C@@H](O)CCCC(=O)O
Description: purified protein.

B1: gamma-glutamyl leukotrienase (GGT5) (Homo sapiens) (protein)
chain 1: SRHQAPCGPQAFAHAAVAADSKVCSDIGRAILQQQGSPVDATIAALVCTSVVNPQSMGLGGGVIFTIYNVTTGKVEVINARETVPASHAPSLLDQCAQALPLGTGAQWIGVPGELRGYAEAHRRHGRLPWAQLFQPTIALLRGGHVVAPVLSRFLHNSILRPSLQASTLRQLFFNGTEPLRPQDPLPWPALATTLETVATEGVEVFYTGRLGQMLVEDIAKEGSQLTLQDLAKFQPEVVDALEVPLGDYTLYSPPPPAGGAILSFILNVLRGFNFSTESMARPEGRVNVYHHLVETLKFAKGQRWRLGDPRSHPKLQNASRDLLGETLAQLIRQQIDGRGDHQLSHYSLAEAWGHGTG
chain 2: TSHVSVLGEDGSAVAATSTINTPFGAMVYSPRTGIILNNELLDLCERCPRGSGTTPSPVSGDRVGGAPGRCWPPVPGERSPSSMVPSILINKAQGSKLVIGGAGGELIISAVAQAIMSKLWLGFDLRAAIAAPILHVNSKGCVEYEPNFSQEVQRGLQDRGQNQTQRPFFLNVVQAVSQEGACVYAVSDLRKSGEAAGY
Consider B1, for which the Km was determined as 10.2 ± 0.1 µM, the kcat was found to be 3.33 s⁻¹ and the kcat/Km came to 317000 M⁻¹ s⁻¹.
